In doi:10.1101/2020.12.18.423418 one finds percent reduction of S1 binding to ACE2 on cells data, which are given here for one substance.

The target in this experiment is SARS-CoV-2 S1 protein containing a C-terminal His-tag (Acro; S1N-C52H3) (SARS-CoV-2) (UniProt P0DTC2). Briefly: flow cytometry on cells. For orientation: In flow cytometry, cells or beads pass a laser one at a time.

The substance “recombinant fragment of human surfactant protein D (rfhSP-D) (from UniProt P35247 199-375) (domain or fragment)” yielded a percent reduction of S1 binding to ACE2 on cells at 10 μg/ml rfhSP-D of 35%.
